Laboratory results published in FireProtDB (doi:10.1093/protein/10.5.575).

Conditions: Bos taurus, pH 7, Absorbance, phosphate 0.1 M, reversible: yes, whole UniProt chain shown

B1: Cytochrome b5 wild type, P00171 (protein)
chain: MAEESSKAVKYYTLEEIQKHNNSKSTWLILHYKVYDLTKFLEEHPGGEEVLREQAGGDATENFEDVGHSTDARELSKTFIIGELHPDDRSKITKPSESIITTIDSNPSWWTNWLIPAISALFVALIYHLYTSEN
denaturant midpoint (higher = more stable) (30 °C, Urea): 7.1 M
Tm (Thermal): 66.2 °C
unfolding enthalpy (van 't Hoff) (Thermal): 71.3 kcal/mol
